In this test the target is mononucleosome assembled with an octamer lacking the H4 tail (human) (UniProt P0C0S8). Kind of test: pull-down.

As for “HIV-1 integrase, wild type (from UniProt P12497 1148-1435) (enzyme)”, the percent less efficient binding than to native MN is 50 to 60%.

The record behind these values is publication PMC5704366.
